# Results taken from patent WO2006121159A1 (dated 2006).
# Target: T1, CD10 (membrane fraction of the CD10-high-expressing human small cell lung cancer cell line SBC-3) (human, UniProt P08473 2-750)
# T1 construct: whole, on cells; The antigen was a crude cell membrane fraction, not purified CD10 and not intact cells; also called CALLA; neutral endopeptidase
# Experiment: ELISA; plate coated with membrane fraction of CD10-high SBC-3 cells; peroxidase-labelled anti-human IgG(H&L); OD415
# T1 sequence (P08473 2-750): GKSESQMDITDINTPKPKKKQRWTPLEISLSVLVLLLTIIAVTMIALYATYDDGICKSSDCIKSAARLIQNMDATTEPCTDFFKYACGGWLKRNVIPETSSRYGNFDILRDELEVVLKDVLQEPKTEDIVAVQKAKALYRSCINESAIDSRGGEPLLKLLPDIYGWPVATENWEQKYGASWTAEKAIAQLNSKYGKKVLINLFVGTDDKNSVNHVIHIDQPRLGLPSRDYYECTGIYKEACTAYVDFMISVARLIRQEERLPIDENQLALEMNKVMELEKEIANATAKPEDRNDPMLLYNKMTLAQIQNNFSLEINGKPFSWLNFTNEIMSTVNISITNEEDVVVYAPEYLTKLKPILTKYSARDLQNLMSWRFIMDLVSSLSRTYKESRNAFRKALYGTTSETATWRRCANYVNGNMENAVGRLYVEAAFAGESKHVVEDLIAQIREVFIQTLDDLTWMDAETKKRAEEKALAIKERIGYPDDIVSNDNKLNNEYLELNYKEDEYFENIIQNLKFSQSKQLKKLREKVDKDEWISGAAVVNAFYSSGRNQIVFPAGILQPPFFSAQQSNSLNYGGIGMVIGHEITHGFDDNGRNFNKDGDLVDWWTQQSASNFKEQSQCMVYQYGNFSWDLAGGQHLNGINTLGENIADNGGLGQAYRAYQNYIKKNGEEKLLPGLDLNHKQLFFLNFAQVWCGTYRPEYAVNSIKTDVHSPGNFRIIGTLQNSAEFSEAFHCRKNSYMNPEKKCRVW
row,binding result,Binder
1,binds,"MS705/HV0LV9 antibody (anti-CD10 CDR-grafted antibody obtained from the HV0LV9MS705 strain, FERM BP-10099) (antibody, V domains shown, Whole antibody expressed from pKANTEX3061HV0LV9 (human constant regions)) VH: EVQLVESGGGVVQPGRSLRLSCAASGFTFSSFGMHWVRQAPGKGLEWVAYISGGSYTIYYADTVKGRFTISRDNSKNTLYLQMNSLRAEDTAVYYCARSYGNFWYFDVWGQGTTVTVSS VL: DIVMTQSPDSLAVSLGERATIACSVSSSISSSNLHWYQQKPGQSPKPWIYGTSNLASGVPVRFSGSGSGTSYFLTISSLQAEDVATYYCQQWSSYPLTFGQGTKVEIKR"
2,binds,"MS705/HV2LV9 antibody (anti-CD10 CDR-grafted antibody obtained from the HV2LV9MS705 strain) (antibody, V domains shown, Whole antibody expressed from pKANTEX3061HV2LV9 (human constant regions)) VH: EVQLVESGGGVVQPGRSLRLSCAASGFTFSSFGMHWVRQAPEKGLEWVAYISGGSYTIYYADTVKGRFTISRDNSKNTLYLQMNSLRAEDTAVYYCASSYGNFWYFDVWGQGTTVTVSS VL: DIVMTQSPDSLAVSLGERATIACSVSSSISSSNLHWYQQKPGQSPKPWIYGTSNLASGVPVRFSGSGSGTSYFLTISSLQAEDVATYYCQQWSSYPLTFGQGTKVEIKR"
3,binds,"MS705/HV0LV0 antibody (anti-CD10 CDR-grafted antibody obtained from the HV0LV0MS705 strain) (antibody, V domains shown, Whole antibody expressed from pKANTEX3061HV0LV0 (human constant regions from the anti-CD10 chimeric antibody expression vector)) VH: EVQLVESGGGVVQPGRSLRLSCAASGFTFSSFGMHWVRQAPGKGLEWVAYISGGSYTIYYADTVKGRFTISRDNSKNTLYLQMNSLRAEDTAVYYCARSYGNFWYFDVWGQGTTVTVSS VL: DIVMTQSPDSLAVSLGERATINCSVSSSISSSNLHWYQQKPGQPPKLLIYGTSNLASGVPDRFSGSGSGTDFTLTISSLQAEDVAVYYCQQWSSYPLTFGQGTKVEIKR"
